Assay [1] addresses T1, soluble human LIFR (leukemia inhibitory factor receptor) (human, UniProt P42702 45-833).
T1 construct: extracellular domain; Bought; also called soluble LIFR
T1 sequence (looked up): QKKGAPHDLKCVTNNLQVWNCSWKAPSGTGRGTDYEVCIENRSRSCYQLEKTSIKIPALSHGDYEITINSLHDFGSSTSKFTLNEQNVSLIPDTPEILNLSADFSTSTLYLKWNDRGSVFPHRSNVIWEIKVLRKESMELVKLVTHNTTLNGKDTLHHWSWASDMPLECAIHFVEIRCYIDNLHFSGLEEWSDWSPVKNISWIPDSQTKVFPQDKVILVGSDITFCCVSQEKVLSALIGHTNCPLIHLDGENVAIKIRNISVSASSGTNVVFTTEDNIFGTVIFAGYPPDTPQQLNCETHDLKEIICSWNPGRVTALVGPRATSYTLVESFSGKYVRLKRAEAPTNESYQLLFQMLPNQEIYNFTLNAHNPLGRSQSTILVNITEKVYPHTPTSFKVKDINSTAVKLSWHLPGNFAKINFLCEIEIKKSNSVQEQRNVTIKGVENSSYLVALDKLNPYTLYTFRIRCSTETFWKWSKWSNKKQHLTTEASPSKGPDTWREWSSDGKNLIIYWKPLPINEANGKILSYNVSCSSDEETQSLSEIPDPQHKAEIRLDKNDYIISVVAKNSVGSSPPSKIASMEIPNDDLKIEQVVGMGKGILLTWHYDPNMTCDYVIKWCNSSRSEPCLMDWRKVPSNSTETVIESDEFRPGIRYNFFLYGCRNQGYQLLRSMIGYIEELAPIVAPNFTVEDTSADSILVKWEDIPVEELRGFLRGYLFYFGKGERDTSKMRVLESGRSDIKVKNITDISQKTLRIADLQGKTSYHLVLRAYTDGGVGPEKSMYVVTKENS
The assay is described as follows: SPR (SensiQ), cytokine immobilised, soluble LIFR as analyte, 1:1 model. The protocol: (§1) Surface Plasmon Resonance (SPR): Kinetic parameters of the interactions between receptor domains and the cytokines LIF, OSM-WT, OSM-M1 or OSM-M2 were analyzed by SPR using the SENSIQ® system (ICX Technologies, Oklahoma City, Okla.) as described by the manufacturer protocol. Briefly, a carboxyl sensor with two channels was installed in SENSIQ® and allowed to thermally equilibrate for about 15 minutes. The channels were initially cleaned with a 3 minute injection of 0.1 M HCl. An activation solution of 2 mM 1-Ethyl-3-[3-dimethylaminopropyl]carbodiimide hydrochloride (EDC) and 0.5 mM N-hydroxysulfo succinimide (NHS) was prepared in deionized water immediately before injection. Activation solution was injected over both channels for approximately 3 minutes followed by a 10 minute injection of 50 μg/mL cytokine (LIF, OSM-WT, OSM-M1 or OSM-M2) in 10 mM acetate buffer, pH 5.0, over channel 1. […] Unreacted NHS esters were capped with a 3 minute injection of 1 M ethanolamine, pH 8.0, over both channels. […] A concentration series of soluble LIFR (# 249-LR-050/CF, R&D Systems, Minneapolis, Minn.), soluble OSMR (# 4389-OR-50, R&D Systems, Minneapolis, Minn.) or soluble gp130 (# 228-GP-050/CF, R&D Systems, Minneapolis, Minn.) in running buffer (10 mM HEPES pH 7.4, 150 mM NaCl, 3.4 mM EDTA, 0.005% Tween-20) were injected over both channels at a flow rate of 25 μl/min. Following a dissociation period of 3 minutes, the surfaces were regenerated by injecting 10 mM NaOH for 30 seconds. Rate constants for association (kₐ) and dissociation (kd) rates were derived by global analysis of the response curves fit to a 1:1 kinetic model (Equations 1 and 2) using QDat software (BioLogic Software, Ltd. Knoxville Tenn. and Nomadics, Inc. Stillwater, Okla.) using 1:1 stoichiometry.
(§2) Reducing the size of the BC loop improves OSM's affinity towards LIFR and OSMR. […] To directly measure the binding kinetics of these ligand-receptor interactions, surface plasmon resonance (SPR) was used.

Assay [2] concerns the target T2, soluble gp130 (R&D Systems # 228-GP-050/CF) (UniProt P40189 23-619, limits assumed).
T2 construct: extracellular domain; Bought
T2 sequence (looked up): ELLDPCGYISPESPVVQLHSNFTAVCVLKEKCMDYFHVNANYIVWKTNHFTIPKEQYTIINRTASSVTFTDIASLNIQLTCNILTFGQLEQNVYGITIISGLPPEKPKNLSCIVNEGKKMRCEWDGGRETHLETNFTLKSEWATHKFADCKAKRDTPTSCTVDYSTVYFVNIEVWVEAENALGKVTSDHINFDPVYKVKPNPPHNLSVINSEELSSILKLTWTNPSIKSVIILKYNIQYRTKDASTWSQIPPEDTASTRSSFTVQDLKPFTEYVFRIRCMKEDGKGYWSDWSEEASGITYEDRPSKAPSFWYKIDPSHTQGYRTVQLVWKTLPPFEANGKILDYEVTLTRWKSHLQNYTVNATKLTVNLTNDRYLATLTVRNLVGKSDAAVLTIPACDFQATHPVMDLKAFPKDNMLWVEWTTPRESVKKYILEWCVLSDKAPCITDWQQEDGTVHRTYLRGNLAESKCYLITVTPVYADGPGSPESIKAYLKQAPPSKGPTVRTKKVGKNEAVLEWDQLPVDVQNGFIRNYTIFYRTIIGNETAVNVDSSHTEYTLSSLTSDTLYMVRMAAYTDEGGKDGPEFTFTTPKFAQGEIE
The assay is described as follows: SPR (SensiQ), cytokine immobilised, soluble gp130 as analyte, 1:1 model. As to the method: as §1, §2

Assay [3] has as its target OSMR:gp130 receptor complex on A375 melanoma cells (UniProt Q99650 28-979; P40189 23-918, limits assumed). The assay is described as follows: cell-based or functional assay.
Assay [4] addresses LIFR:gp130 receptor complex on human retinal Müller cells (human, UniProt P42702 45-1097; P40189 23-918). The assay is described as follows: cell-based or functional assay.

Chain of LIFR:gp130 receptor complex on human retinal Müller cells (P42702 45-1097, one chain of several): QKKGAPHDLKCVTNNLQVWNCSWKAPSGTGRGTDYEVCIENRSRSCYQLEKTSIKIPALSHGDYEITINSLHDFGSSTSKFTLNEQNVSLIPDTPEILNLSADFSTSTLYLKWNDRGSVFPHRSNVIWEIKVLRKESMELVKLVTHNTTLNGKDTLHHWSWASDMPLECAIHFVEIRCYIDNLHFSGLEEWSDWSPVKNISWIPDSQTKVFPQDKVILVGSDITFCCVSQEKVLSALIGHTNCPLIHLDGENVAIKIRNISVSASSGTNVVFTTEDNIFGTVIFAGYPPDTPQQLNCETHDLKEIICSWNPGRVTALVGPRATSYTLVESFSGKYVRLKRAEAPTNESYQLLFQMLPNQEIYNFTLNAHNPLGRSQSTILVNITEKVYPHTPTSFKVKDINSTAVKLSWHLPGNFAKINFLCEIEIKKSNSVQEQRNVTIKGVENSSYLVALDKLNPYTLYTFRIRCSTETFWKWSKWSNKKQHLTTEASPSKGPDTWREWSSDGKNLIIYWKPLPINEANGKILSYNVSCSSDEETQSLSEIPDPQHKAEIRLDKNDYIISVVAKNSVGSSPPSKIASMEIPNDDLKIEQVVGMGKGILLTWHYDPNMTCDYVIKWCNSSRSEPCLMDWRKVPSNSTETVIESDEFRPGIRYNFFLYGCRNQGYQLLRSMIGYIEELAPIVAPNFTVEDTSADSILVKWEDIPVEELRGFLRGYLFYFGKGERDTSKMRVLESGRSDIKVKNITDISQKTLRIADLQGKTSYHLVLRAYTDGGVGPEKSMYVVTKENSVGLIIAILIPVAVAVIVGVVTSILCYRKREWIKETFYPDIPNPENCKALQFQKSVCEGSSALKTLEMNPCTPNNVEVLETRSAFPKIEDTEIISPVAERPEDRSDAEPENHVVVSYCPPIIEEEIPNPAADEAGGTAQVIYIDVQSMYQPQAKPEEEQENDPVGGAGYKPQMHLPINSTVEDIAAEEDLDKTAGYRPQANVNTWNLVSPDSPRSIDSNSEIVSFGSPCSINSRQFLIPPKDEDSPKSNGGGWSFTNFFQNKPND

B1: OSM-WT ('AGA' modified human Oncostatin M, referred to as wild-type OSM) (ligand)
chain: AAIGSCSKEYRVLLGQLQKQTDLMQDTSRLLDPYIRIQGLDVPKLREHCRERPGAFPSEETLRGLGRRGFLQTLNATLGCVLHRLADLEQRLPKAQDLERSGLNIEDLEKLQMARPNILGLRNNIYCMAQLLDNSDTAEPTKAGAGASQPPTPTPASDAFQRKLEGCRFLHGYHRFMHSVGRVFSKWGESPN
notes: also called hOSM with AGA modification; not shown: N-terminal FLAG tag left after thrombin removal of GST
Turning to B1, in assay [1], the Kd is 43.8 nM, the off-rate constant (koff) amounted to 0.004 s⁻¹ and the on-rate constant (kon) was determined as 91000 M⁻¹ s⁻¹. In assay [2], this molecule had a Kd of 22.7 nM, an off-rate constant (koff) of 0.0047 s⁻¹ and an on-rate (kon) of 207000 M⁻¹ s⁻¹.

B2: human leukemia inhibitory factor (LIF) (ligand)
chain: not shown
notes: Purified recombinant protein; also called hLIF
Take B2: in assay [1], the dissociation constant Kd is 3.1 nM, the koff turned out to be 0.0023 s⁻¹ and the kon turned out to be 740000 M⁻¹ s⁻¹. In assay [2], this molecule showed an equilibrium dissociation constant (Kd) of 72.4 nM, a koff of 0.00533 s⁻¹ and an on-rate (kon) of 74000 M⁻¹ s⁻¹.

B3: OSM-M2 (OSM with BC loop truncated from 12 to 4 amino acids) (ligand)
chain: AAIGSCSKEYRVLLGQLQKQTDLMQDTSRLLDPYIRIQGLDVPKLREHCRERPGAFPSEETLRGLGRRGFLQTLNATLGCVLHRLADLEQRLGGGNIEDLEKLQMARPNILGLRNNIYCMAQLLDNSDTAEPTKAGAGASQPPTPTPASDAFQRKLEGCRFLHGYHRFMHSVGRVFSKWGESPN
notes: Made from the 'AGA' modified OSM template; lacks the thrombin site; not shown: N-terminal FLAG tag left after thrombin removal of GST
Regarding B3, the “concentration needed for receptor activation, against native OSM” value (from here on “concentration needed”) in assay [3] was 3 fold lower concentration. Also, in assay [4], the “concentration needed” value was found to be 3 fold lower concentration. In assay [1], this molecule yielded a Kd of 2.74 nM, a koff of 0.00356 s⁻¹ and a kon of 1.3e+06 M⁻¹ s⁻¹. In assay [2], this molecule showed a Kd of 21.5 nM, an off-rate (koff) of 0.00487 s⁻¹ and an association rate constant (kon) of 227000 M⁻¹ s⁻¹.

B4: OSM-M1 (OSM with BC loop truncated from 12 to 7 amino acids) (ligand)
chain: AAIGSCSKEYRVLLGQLQKQTDLMQDTSRLLDPYIRIQGLDVPKLREHCRERPGAFPSEETLRGLGRRGFLQTLNATLGCVLHRLADLEQRLGAPSGLNIEDLEKLQMARPNILGLRNNIYCMAQLLDNSDTAEPTKAGAGASQPPTPTPASDAFQRKLEGCRFLHGYHRFMHSVGRVFSKWGESPN
notes: as for B3
Regarding B4, in assay [3], the “concentration needed” value was 3 fold lower concentration. In assay [4], the “concentration needed” value stood at 3 fold lower concentration. Further, in assay [1], binding was put at a Kd of 7.62 nM, the off-rate (koff) came to 0.00252 s⁻¹ and the association rate constant (kon) came out at 331000 M⁻¹ s⁻¹. In assay [2], this molecule had a Kd of 26.3 nM, a koff of 0.00534 s⁻¹ and a kon of 203000 M⁻¹ s⁻¹.

A word on the Kd: it is the constant that tells how readily two partners part at equilibrium. The low end stands for a tighter complex, the high end for a looser complex. A word on the koff: it is the first-order rate constant of dissociation. Higher therefore signals a short-lived complex. As usually defined, the kon is the rate constant with which the complex forms. A high value points to fast association.

The record behind these values is patent publication US20100310509A1 (published 2010).
